Experimental data as given in article PMC6806390.

Target: Cytochrome-C, type III (Sigma C-2506) (UniProt P00004)
Test: SDS-PAGE of the methanol precipitate

Sequence of Cytochrome-C, type III (Sigma C-2506), P00004 1-105 (natural protein; other documents disagree on this pair) (P00004 whole entry): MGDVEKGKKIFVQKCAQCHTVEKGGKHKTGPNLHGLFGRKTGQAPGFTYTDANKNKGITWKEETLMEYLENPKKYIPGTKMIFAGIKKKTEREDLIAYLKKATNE

- stoichiometry N: > 7
Substance: Cytochrome-C, type III (Sigma C-2506), P00004 1-105 (natural protein; other documents disagree on this pair)
